Source: patent US20240092841A1

Key:
Experiment in all cases: co-IP with agarose-bound AvFc from A549 whole-cell lysate, mass spectrometry
[1] = molecular target: Tetratricopeptide repeat protein 17 (human) (UniProt Q96AE7)
Mucin-5B (human) = Mucin-5B (human) (UniProt Q9HC84)
[2] = molecular target: Cell cycle control protein 50A (human) (UniProt Q9NV96)
[3] = molecular target: Cation-dependent mannose-6-phosphate receptor (human) (UniProt P20645)
[4] = molecular target: Transmembrane protein 106B (human) (UniProt Q9NUM4)
[5] = molecular target: Contactin-associated protein-like 3 (human) (UniProt Q9BZ76)
[6] = molecular target: Protocadherin Fat 1 (human) (UniProt Q14517)
[7] = molecular target: T-complex protein 1 subunit theta (human) (UniProt P50990)
[8] = molecular target: Metal transporter CNNM4 (human) (UniProt Q6P4Q7)
Integrin beta-5 (human) = Integrin beta-5 (human) (UniProt P18084)
[9] = molecular target: Transmembrane protein 131 (human) (UniProt Q92545)
[10] = molecular target: Insulin-like growth factor 1 receptor (human) (UniProt P08069)
[11] = molecular target: Prolow-density lipoprotein receptor-related protein 1 (human) (UniProt Q07954)
Erlin-2 (human) = Erlin-2 (human) (UniProt O94905)
Exportin-1 (human) = Exportin-1 (human) (UniProt O14980)
Plexin-B2 (human) = Plexin-B2 (human) (UniProt O15031)
[12] = molecular target: Transmembrane protein 2 (human) (UniProt Q9UHN6)
[13] = molecular target: Laminin subunit gamma-1 (human) (UniProt P11047)
Mucin-5AC (human) = Mucin-5AC (human) (UniProt P98088)
[14] = molecular target: Cation-independent mannose-6-phosphate receptor (human) (UniProt P11717)
[15] = molecular target: Sortilin-related receptor (human) (UniProt Q92673)
Serpin H1 (human) = Serpin H1 (human) (UniProt P50454)
[16] = molecular target: Neutral amino acid transporter B (0) (human) (UniProt Q15758)
[17] = molecular target: Magnesium transporter protein 1 (human) (UniProt Q9H0U3)
Agrin (human) = Agrin (human) (UniProt O00468)
[18] = molecular target: Galectin-3-binding protein (human) (UniProt Q08380)
Integrin alpha-1 (human) = Integrin alpha-1 (human) (UniProt P56199)
[19] = molecular target: Laminin subunit beta-2 (human) (UniProt P55268)

Chain of UniProt Q07954 (Q07954 20-4544 limits assumed): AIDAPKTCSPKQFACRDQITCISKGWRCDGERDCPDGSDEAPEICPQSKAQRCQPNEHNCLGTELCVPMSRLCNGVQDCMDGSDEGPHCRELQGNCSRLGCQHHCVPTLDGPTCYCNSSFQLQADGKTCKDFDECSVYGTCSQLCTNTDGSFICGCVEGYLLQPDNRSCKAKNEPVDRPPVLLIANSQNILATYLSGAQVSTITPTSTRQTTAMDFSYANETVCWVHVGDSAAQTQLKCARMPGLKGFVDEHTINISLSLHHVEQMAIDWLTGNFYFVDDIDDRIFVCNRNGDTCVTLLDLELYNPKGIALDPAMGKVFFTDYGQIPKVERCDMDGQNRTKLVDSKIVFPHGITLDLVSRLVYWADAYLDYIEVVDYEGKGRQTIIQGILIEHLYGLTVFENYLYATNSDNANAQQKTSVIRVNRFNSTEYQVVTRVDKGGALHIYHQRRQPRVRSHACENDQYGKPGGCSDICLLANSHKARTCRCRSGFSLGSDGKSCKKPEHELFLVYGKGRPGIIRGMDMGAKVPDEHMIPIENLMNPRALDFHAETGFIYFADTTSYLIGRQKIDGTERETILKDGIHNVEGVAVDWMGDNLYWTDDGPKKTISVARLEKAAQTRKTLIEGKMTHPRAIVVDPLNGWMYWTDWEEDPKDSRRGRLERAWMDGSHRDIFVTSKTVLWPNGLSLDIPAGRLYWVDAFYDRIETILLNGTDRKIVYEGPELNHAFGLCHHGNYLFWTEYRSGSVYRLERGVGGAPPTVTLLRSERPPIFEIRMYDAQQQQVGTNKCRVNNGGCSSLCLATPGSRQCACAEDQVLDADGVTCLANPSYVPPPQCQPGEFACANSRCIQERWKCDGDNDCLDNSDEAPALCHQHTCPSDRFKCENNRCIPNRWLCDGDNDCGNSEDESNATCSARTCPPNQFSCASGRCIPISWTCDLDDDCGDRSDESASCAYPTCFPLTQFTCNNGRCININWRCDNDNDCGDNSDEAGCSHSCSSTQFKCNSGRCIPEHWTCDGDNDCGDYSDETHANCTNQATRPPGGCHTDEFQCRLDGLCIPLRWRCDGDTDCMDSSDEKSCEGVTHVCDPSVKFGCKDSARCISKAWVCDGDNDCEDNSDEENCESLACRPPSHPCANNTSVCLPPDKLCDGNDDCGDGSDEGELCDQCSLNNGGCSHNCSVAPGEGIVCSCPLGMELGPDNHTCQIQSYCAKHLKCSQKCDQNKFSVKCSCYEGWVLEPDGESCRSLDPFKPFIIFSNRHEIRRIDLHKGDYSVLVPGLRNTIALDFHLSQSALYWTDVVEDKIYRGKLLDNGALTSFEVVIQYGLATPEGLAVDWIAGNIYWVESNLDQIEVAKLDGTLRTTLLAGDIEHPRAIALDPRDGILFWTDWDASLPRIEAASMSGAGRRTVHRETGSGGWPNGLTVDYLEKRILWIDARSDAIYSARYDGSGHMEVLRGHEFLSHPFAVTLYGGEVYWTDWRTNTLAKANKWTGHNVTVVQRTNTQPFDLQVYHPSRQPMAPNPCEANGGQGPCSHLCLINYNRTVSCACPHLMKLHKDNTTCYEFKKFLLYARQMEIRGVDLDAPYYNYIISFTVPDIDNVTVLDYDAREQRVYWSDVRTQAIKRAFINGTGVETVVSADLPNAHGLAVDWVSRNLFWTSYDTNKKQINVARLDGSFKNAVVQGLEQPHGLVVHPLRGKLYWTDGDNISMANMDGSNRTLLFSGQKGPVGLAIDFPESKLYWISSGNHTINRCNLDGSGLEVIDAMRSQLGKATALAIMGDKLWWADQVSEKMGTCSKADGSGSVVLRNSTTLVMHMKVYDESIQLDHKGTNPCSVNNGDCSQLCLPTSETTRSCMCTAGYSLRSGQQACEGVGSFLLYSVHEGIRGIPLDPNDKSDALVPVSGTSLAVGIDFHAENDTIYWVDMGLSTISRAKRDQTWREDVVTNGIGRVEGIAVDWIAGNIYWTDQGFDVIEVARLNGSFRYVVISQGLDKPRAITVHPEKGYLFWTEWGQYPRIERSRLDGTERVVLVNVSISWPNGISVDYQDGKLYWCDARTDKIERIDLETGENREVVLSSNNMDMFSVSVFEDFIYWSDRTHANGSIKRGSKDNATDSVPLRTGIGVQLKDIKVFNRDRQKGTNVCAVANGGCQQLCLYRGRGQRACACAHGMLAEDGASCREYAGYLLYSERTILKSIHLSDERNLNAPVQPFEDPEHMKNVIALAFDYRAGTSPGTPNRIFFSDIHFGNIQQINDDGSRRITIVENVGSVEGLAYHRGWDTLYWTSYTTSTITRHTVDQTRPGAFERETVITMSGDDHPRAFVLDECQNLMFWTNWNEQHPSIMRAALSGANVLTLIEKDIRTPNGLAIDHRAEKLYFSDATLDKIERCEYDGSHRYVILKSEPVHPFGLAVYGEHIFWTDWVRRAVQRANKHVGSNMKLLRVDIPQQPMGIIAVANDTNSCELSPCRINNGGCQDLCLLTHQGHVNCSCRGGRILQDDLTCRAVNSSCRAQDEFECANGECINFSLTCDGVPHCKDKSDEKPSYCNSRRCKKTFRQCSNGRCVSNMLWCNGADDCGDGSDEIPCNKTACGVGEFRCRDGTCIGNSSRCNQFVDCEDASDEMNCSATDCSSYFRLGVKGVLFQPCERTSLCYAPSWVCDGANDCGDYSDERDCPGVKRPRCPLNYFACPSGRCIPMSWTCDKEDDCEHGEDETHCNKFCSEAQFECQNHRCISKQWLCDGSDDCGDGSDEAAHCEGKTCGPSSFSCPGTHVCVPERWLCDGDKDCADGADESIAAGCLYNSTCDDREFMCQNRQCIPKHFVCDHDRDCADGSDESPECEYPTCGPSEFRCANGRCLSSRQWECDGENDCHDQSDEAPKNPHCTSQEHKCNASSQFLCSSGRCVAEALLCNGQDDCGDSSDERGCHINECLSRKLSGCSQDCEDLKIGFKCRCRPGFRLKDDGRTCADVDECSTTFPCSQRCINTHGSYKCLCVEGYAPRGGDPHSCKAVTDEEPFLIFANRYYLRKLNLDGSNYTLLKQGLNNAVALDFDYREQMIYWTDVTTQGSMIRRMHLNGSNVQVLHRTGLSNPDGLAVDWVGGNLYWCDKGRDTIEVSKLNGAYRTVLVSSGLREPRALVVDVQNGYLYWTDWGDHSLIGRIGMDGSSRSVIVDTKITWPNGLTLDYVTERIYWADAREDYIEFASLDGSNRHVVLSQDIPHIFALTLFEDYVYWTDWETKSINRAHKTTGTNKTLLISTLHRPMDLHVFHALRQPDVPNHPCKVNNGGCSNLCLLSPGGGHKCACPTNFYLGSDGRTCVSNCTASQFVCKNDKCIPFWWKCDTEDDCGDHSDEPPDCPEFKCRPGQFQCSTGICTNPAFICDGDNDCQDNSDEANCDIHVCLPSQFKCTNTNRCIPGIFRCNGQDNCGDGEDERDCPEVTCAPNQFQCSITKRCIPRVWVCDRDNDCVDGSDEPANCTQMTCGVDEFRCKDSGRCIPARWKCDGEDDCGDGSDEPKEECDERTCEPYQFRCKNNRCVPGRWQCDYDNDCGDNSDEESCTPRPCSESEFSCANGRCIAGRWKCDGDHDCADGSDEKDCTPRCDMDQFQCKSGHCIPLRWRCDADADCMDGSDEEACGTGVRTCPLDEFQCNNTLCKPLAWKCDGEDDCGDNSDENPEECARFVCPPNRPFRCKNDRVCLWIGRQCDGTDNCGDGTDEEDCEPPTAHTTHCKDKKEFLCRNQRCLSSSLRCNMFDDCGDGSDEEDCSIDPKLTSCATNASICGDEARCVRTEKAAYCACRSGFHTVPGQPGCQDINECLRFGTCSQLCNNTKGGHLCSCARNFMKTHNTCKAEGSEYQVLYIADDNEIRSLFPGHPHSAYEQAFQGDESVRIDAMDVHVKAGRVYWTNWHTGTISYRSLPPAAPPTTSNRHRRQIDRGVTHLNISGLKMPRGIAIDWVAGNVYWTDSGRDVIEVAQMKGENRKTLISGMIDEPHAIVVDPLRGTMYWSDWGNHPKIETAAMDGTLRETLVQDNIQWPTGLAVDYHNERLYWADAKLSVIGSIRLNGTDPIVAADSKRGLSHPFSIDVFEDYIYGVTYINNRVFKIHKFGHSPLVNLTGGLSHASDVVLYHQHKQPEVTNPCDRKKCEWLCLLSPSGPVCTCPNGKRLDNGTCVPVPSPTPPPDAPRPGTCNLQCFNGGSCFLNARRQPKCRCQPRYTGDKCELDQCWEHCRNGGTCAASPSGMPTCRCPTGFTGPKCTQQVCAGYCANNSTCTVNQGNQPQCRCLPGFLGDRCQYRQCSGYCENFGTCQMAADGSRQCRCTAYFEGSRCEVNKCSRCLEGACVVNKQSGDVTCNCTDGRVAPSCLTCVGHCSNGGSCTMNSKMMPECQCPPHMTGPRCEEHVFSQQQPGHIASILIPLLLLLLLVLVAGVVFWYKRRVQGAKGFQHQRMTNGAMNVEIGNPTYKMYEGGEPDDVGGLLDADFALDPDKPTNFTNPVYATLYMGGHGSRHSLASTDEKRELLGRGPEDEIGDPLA
Chain of UniProt P20645 (P20645 27-277 limits assumed): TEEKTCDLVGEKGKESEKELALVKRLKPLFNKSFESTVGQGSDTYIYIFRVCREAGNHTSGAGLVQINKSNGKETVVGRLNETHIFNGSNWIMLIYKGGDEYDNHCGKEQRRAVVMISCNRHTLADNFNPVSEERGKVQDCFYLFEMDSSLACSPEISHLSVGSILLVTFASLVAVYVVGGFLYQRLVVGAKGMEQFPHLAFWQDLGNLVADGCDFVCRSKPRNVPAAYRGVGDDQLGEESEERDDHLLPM
Chain of UniProt Q9H0U3 (Q9H0U3 30-335 limits assumed): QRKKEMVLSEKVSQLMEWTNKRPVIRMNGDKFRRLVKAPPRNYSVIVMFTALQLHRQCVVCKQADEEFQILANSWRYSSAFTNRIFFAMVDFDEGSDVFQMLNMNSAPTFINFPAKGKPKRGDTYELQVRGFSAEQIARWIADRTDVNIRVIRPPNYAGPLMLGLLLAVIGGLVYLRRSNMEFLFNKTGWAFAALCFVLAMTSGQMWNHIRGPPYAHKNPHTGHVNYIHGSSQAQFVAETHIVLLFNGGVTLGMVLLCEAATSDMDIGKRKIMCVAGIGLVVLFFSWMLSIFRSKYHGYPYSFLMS

Avaren-Fc (AvFc) (Fc fusion)
Percentage of Total Spectra (%) [1]: 0.13% | Percentage of Total Spectra (%) (Mucin-5B (human)): 0.14% | Percentage of Total Spectra (%) [2]: 0.021% | Percentage of Total Spectra (%) [3]: 0.028% | Percentage of Total Spectra (%) [4]: 0.098% | Percentage of Total Spectra (%) [5]: 0.11% | Percentage of Total Spectra (%) [6]: 0.12% | Percentage of Total Spectra (%) [7]: 0.091% | Percentage of Total Spectra (%) [8]: 0.091% | Percentage of Total Spectra (%) (Integrin beta-5 (human)): 0.11% | Percentage of Total Spectra (%) [9]: 0.056% | Percentage of Total Spectra (%) [10]: 0.091% | Percentage of Total Spectra (%) [11]: 0.056% | Percentage of Total Spectra (%) (Erlin-2 (human)): 0.15% | Percentage of Total Spectra (%) (Exportin-1 (human)): 0.056% | Percentage of Total Spectra (%) (Plexin-B2 (human)): 0.12% | Percentage of Total Spectra (%) [12]: 0.11% | Percentage of Total Spectra (%) [13]: 0.36% | Percentage of Total Spectra (%) (Mucin-5AC (human)): 0.21% | Percentage of Total Spectra (%) [14]: 0.2% | Percentage of Total Spectra (%) [15]: 0.12% | Percentage of Total Spectra (%) (Serpin H1 (human)): 0.063% | Percentage of Total Spectra (%) [16]: 0.014% | Percentage of Total Spectra (%) [17]: 0.021% | Percentage of Total Spectra (%) (Agrin (human)): 0.21% | Percentage of Total Spectra (%) [18]: 0.07% | Percentage of Total Spectra (%) (Integrin alpha-1 (human)): 0.021% | Percentage of Total Spectra (%) [19]: 0.056%
